{"source": "paper PMC3257359", "about": "(Cell research, 2011)", "note": "No end group written: not given here. *: point of attachment. Biotin = O=C1N[C@H]2[C@H](CS[C@H]2CCCCC(=O)*)N1", "data": [{"target": "T1, human PPARγ LBD (residues 206-477) (human, UniProt P37231-2 206-477)", "T1 sequence": "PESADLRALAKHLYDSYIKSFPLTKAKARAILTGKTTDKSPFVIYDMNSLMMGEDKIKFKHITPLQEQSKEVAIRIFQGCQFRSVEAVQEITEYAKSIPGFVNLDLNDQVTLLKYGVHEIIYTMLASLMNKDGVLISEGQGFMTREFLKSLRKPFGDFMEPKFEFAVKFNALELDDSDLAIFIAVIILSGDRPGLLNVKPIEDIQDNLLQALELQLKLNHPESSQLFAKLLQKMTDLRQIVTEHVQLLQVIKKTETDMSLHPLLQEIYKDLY", "experiment": "AlphaScreen or HTRF", "values": [{"binder": "Biotin-SGNLVPDAASKHKQLSELLRGGSG", "note": "[CBP-1 peptide (coactivator LXXLL motif of CBP), N-terminally biotinylated]", "binding result": "binds"}, {"binder": "Biotin-SPSSHSSLTERHKILHRLLQEGSP", "binding result": "binds"}, {"binder": "Biotin-QEPVSPKKKENALLRYLLDKDDTKD", "binding result": "binds"}, {"binder": "Biotin-QKPTSGPQTPQAQQKSLLQQLLTE", "binding result": "binds"}]}]}
